The text below walks through data of a protein production outcome set (Wang et al. 2014).
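Also: failed if final PepcDB status was selected cloned or expressed and not failed if soluble or beyond.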

A short description of the series: label from the status in PepcDB records.
In the case of “MKSIYYLSADDLFQMNTFLIQTYSPAEQIGIKDRNALEMASNQPAQFVFDVDLYPTIEEKAAILMINIATKHCFYNANKRTAVMATDLFLQLNGYDFQLDTQEGVDLLVFIATYRSDFDQLKNDVSKVIRAKLNHTSSHLEHHHHHH”, the protein production entry is on record as “not failed”.
In the case of “MKSLEEKTIAKEQIFSGKVIDLYVEDVELPNGKASKREIVKHPGAVAVLAVTDEGKIIMVKQFRKPLERTIVEIPAGKLEKGEEPEYTALRELEEETGYTAKKLTKITAFYTSPGFADEIVHVFLAEELSVLEEKRELDEDEFVEVMEVTLEDALKLVESREVYDAKTAYAIQYLQLKEALQAQK”, the protein production result is “failed”.
The entry for “MKSLHRPDLYSWSTFNPARNIDFNGFAWIRPEGNILIDPVALSNHDWKHLESLGGVVWIVLTNSDHVRSAKEIADQTYTKIAGPVAEKENFPIYCDRWLSDGDELVPGLKVMELQGSKTPGELALLLEETTLITGDLVRAYRAGGLEILPDEKLMNKQKVVASVRRLAALEKVEAVLVGDGWSVFRDGRDRLKELVATLA” is “not failed”.
The entry for “MKSLWSDADAAECVERLGLLGLPPELGLRTYSARLLGSNPKLVLHGGGNTSVKLNINDLFGNPVQVMCIKGSGQDLATITASGHPAVRLAPLQQLKVLDHLSDEDMVNILRTNLLDCRAPTPSVEALLHAFVDRPVIDHTHAVAAMVIADQPDGDRLCRYIYGERVLWIPYVMSGFALSLAVERAFRAYPDAEGMLLGKHGLCTFGESAKASYERMITFVTLAENFIESRRAIYSPPVITPPAKPNNLADMAHIAPYLRAAFARSSAISEKKHWIFDLRTDPKSLAFSSGLGTSDIAQRGVATPDHVIRMKGRPVVLDAPDLNNLGDWAAQTQTKIAAFVERYQHYFHRNNARFERGKIALDALPRAIVIPYLGVVGAGRTAEDAAINADIIESWLDVVTDATVCGDYEPIGEADEFDMEYWSLEQAKIDKASVKPLQGQIVVVTGAGGGIGAAIAKEFSLLGAELAVLDIDSESAKNVAAQLGPHALALQCDVTETASVQAAFETIATRFGGVDIVVSNAGVALSGAIAELPEATLRTSFEVNFFAHQRVAQQAVSIMKKQGIGGVLLFNISKQAINPGINFGAYGTSKAALLSLVRQYALEQGQDSIRVNAVNADRIRSGLLDDEMISLRARARGLSEEKYMAGNLLGQEVTAQDVAKAFVVSAMLDKSTGNVITVDGGNVAAMLR” is “failed”; for “MKSRIIVRTSFDAAHAVKVGDHWEDVHGHTFFLEVAIEGEIKNGYVMDFLELRKIVEEITKELDHRNLNNIFENPTTENIALWIGERIRDKLPPYVKLKRVVLWEGKDNGVELEW” it is “not failed”; for “MKSRWIIGRSEYLDLAFHAWKQARQDETVIRIEVPQDSEHEFDLGVLDGLNPTDGAMFVAFDERFGNFKRVELMQAAMERGFKLESYIHSSAAIGTDVVIGLNTFVGAHAVVGHGCKIDYNTVIHAGAHLGTACRIKSSCWIENGVQIGAGVEIGGNSILRTGAIVRGGIKVGRSCELGWPRVYCEDVPAKTYFDARYHNPIHTFGT” it is “failed”.
“MKSTEKKELSHFRLKLETYLNEHFPEMSGNNPFITARSDEALTAYCDAVAQGFSHPEAESMASEVLYQGLHFSRYDTLVSVLEREFEQELPSPLPERLAPILLKNKAIQSVFAKYDLTDDFEASPEYEHLYTELTGTIVLLIESNHLPTIGGGNDTV”: the protein production result was “not failed”.
“MKSTFSVLFFVKKDKQKINGSYPIFVRITIDGVASRFNSKLDVQPKLWDGKAGKAAGRSAEATRINRLLDDINASLNTIYHELQRRDNYVTAEKVKNEFLGHSENHDTILNLFQKHNDDVKQLVGISKTIATYRKYEVTRRHLAEFIQSKYNLSDISIKEITPMFITDFELYLRTTCKCGYNTTAKFMQFFKRIILIARNNGILIGDPFANYKIRLEKVDRGYLTEDEIKIILKKKMVSERLEQVRDVFIFSCFSGLAYVDVANLKEDNIRKSFDGNLWIITKRQKTNTDVNVPLLDIPKMILEKYKGKLPNGKVLPIISNQK”: the protein production entry is given as “not failed”.
In the case of “MKSVKTLLTRPFNWVVLTFCIIFVGLFIFTFFNAKFYDTPIGQITQINNTQSTQVSDEHHNKDTKHKETLHIHILNGKFEGKTTTITHEYTESQADSEAFSKNDKVLLHVDKNLTTAYITEKKRDSLVVAITGIFLLTVLLVGKKIGLQSILSLALNTCIVLLAIYIHNQSPNISLFGLMSIAIFISTTLTLVLVTGWQWRTLITIISTLLGTFLCVGITQCIIQITDGSGLKFETMSFLTLPPKEVFLASVMIGSLGAVMDVAITIASGMAEILRRTPDISMRRWALAGCNIGQDIMGTMTNILLFSYLSGSLPMLLIYLKNANTITYTISMNWSLEISRAITGGIGIVLTIPITILLMQVWFKLRGVKS”, the protein production entry is “failed”.
In the case of “MKSVQEKRNNTRAFKTVAKSWFATKTTWSEDYQRSVWTRLETYLFPDIGNKDIAELDTGDLLVPIKKIEKLGYLEIAMRVKQYATAIMRYAVQQKMIRFNPAYDLEGAVQKLEHHHHHH”, the protein production result is given as “not failed”.
For “MKSWTILLSTLCLFSCNQQENKFEKYVDPLIGTDIRIVQGKDKNSTEERGQIMPAVGVPHGMTNWVAQTQATEQKCHPPYYYFQDAIQGFRASHWMNGSCTQDYGSITIMPLSNKLEIDPVKRASTFDHTQETATPSYYSVDLNDYDIHAELTGLSRAGIMQFSFEQDGDHYIVIEPNSDEGVAFVEIDPEKKEITGYNPVHRIYQGYGKEAGFSGHFVIQLNEEIADYGVWDSTTITPGRKSAKGQKHAVGAWIKLTSDKPGKILVKVATSFTSIDNARKNLAAEIPGWNFNEVRQASSDIWNQALGQIAVKGNNEKEKVKFYSALYNAHFLPRAFSDVDGSYPRFDGDGQIMKMDHGTYYCDFSQWDTYRAVHPLFSILTPSRNGDMAHSLVLKGQQGGWLPIFPSWNSYTAAMIGDHCIAMIGDAIVKDTPGFDYEEAYTLMRKNAFEANPDSGSYRDGKGRRAMESYLKYNYVPLEDQVTEAFHRREQVSRTLEYAYDDFVLAQVAKKLGKTDDYKALIKRAENYRNVIDPETGYARGRHADGTWIEPFDPFASTSFICEGTPYHYTWYAPQDIAGLIRHMGGKERFINRLDNFFEGNYYWHGNEPGHHIAYLFAYAGEPWKTQKWVHDIINREYFTTPDGLSGNDDAGQMSSWLVFSMVGFYPVCPGMPYYVIGSPSFEESVITLENGKKFTIEAKGASEKNIYIQSATLNGQPYNKSYILHKDIMNGGILSFVMGDSPNKEWASSAGSLPPSMGL”, the protein production entry was “failed”.
On to “MKTDTEWLLCDFHVHTNMSDGHLPLGEVVDLFGKHGVDVVSITDHIVDRRTLEQRKRNGEPLGAITEDKFQDYLKRLWREQKRAWEEYGMILIPGVEITNNTDLYHIVAVDVKEYVDPSLPVEEIVEKLKEQNALVIAAHPDRKKQDEEHLSWYLWANMERFKDTFDAWEIANRDDLFNSVGVKKYRYVANSDFHELWHVYSWKTLVKSEKNIEAIKEAIRKNTDVAIYLMRKNRLSSLSDVI”, for which the protein production entry was “not failed”.
The entry for “MKTEKFFTHPIGVFIAAIVATFLWGSAFPFIKLSYVELGIQPQEVGEQILFAGYRFFLSGFMLLLFFKVLGKDMSFKKGTGKQLIQIGLFQTFLQYICFYIGMSYSSGIEGAIISGTSSFFQILLAHFLYKDDALNMRKIIGVSIGFCGVVLVNMPSDGSLSFHFGIGSLLLLSAAMLYSYGNILAKEGSKTLDVGYMTAYQMMFGSIGLLCIGALQVGVMPFTFSLHALLMLIYLSFLSAAGFCIWNTIMKYNKVGKVSMYMFFIPVFGVLLSSMILGEAIHSFVLLGLACVAAGIIVVNRTPAKQKIEKEKQVA” is “failed”; for “MKTESTGKALMVLGCPESPVQIPLAIYTSHKLKKKGFRVTVTANPAALRLVQVADPEGIYTDEMVDLESCINELAEGDYEFLAGFVPNDAAAAYLVTFAGILNTETLAIIFDRDADVLEELVNEIMETLDAEIIAARAHHNPAPLRVRIDRFMEEKP” it is “not failed”.
For the sequence “MKTFHLTTQSRDEMVDITSQIETWIRETGVTNGVAIVSSLHTTAGITVNENADPDVKRDMIMRLDEVYPWHHENDRHMEGNTAAHLKTSTVGHAQTLIISEGRLVLGTWQGVYFCEFDGPRTNRKFVVKLLTD”, the protein production result is reported as “not failed”.
The entry for “MKTFIWNSNYETGVAKVDDQHQCLVEIINEYSHLLANNTTTETDIELTLNKLIDYTKFHFKDEEQLMYSVGLDTRHITHHEKLHRDILDEISTLLSDQVTDKLSIARYILDLIIHWLVYHILGTDMNMAKLEHHHHHH” is “failed”; for “MKTFIWNSNYETGVAKVDDQHQCLVEIINEYSHLLANNTTTETDIELTLNKLIDYTKFHFKDEEQLMYSVGLDTRHITHHEKLHRDILDEISTLLSDQVTDKLSIARYILDLIIHWLVYHILGTDMNMAKQMKAIQGGLSARDAYDFEEKIKDKSTEPLLEALNALFIQISERNKDLMELNKTLEAKVISRTQQLSERNKELAILSLTDPLTNMANRRHAMQQLTLLWEESVNNNLPLSCLMIDVDYFKQINDTHGHDIGDVVLIELARVFQHAIRTDDIACRLGGDEFFIICPATELEGGLLIAELINEQVESLSIDISDSQLSLSTSIGVATKTAQMTSIEDLMKAADDGVYSAKSNGRGCTKSIQ” it is “failed”; for “MKTFKGKVTTTLAVLSAMSLFAFSASLLAGSLDLSGRSDDDTQQDTGRKPAQIIDFVGVEKGDKVLDLLAGGGYYSELLSRVVGEKGEVTLQIPKAYLKYAEKSIKVRLANDRLKNVTYLLSEADDLKLSENTYDSAFLVLGFHDMFFKEDSWNFTADEVMPQVLTSLKSGGKLLVIDHDATENSGIRDVKSLHRIDSAFVKADLEKRGFKLVKTSKILENNADDHSKLVFVPELRRKTDRFVMLFEKI” it is “failed”.
For the sequence “MKTHFYRLKFKKSIFFAVFLSFFSLLFAVDYFEEGKKLLYADKPQEAVSALFKASQEAGTPKSVYLYLGVAYFRMGKYSEALTYLSQGKDKDILNGHLYYYNIGNVYFLQNQFEASELAYNEAISSNGLYAPAFLNRANTRIKLEKLEGALQDYKIYLNLNPETLQRSSIEKMISLLEGLAEEAERAKALAEAKKAAEEAERLAAEARYKKLMEDVNANLSSVDNADALSAGADNTIDYSEENELD”, the protein production result is listed as “failed”.
For the sequence “MKTIDLADIQAFLYRESRLLDDKAWDAWLDCYRADAVFWMPSWDDADALVTDPQREISLIYYPNRQGLEDRVFRIKTERSSATVPDTRTSHNIANVERESADGDVHTVRFNWHTLSYRYKTVSSYFGMSRYAIDFSGDAPKIVSKYVVLKNDYINQLIDIYHI”, the protein production result is listed as “not failed”.
The entry for “MKTIGLLGGMSWESTIPYYRLINEGVKARLGGLHSASLVLHSVDFHDIEACQSAGDWDRAGEILAEAAVGLQQAGAEGIVLCTNTMHKVADAIAARCQVPFLHIADATGRAIAAKGQRRVALLGTRYTMEQTFYRGRLQEQFAIETLIPEADDRAQINQIIFDELCLGTFSEASRDYYLQTIAALAEQGAEGVIFGCTEIGLLVPAELSPLPVFDTAAIHAEDAVNFMLSAGPTPAA” is “failed”.
As for “MKTINIVAGGPKNLIPDLTGYTDEHTLWIGVDKGTVTLLDAGIIPVEAFGDFDSITEQERRRIEKAAPALHVYQAEKDQTDLDLALDWALEKQPDIIQIFGITGGRADHFLGNIQLLYKGVKTNIKIRLIDKQNHIQMFPPGEYDIEKDENKRYISFIPFSEDIHELTLTGFKYPLNNCHITLGSTLCISNELIHSRGTFSFAKGILIMIRSTDLEHHHHHH”, the protein production result was “not failed”.
The entry for “MKTINVITLVLLIVGGLNWGLVGLFQFDLVAALFGGQDALLSRVVYTLVGISALRQLVPLFRNNHDTAEHHTSPHVRNNP” is “failed”.
